Consider five molecules from patent publication US20180100178A1 (CORNELL UNIVERSITY, published 2018).

B3: Alexa Fluor 488-labeled recombinant mouse GAC (FRET donor) (enzyme)
chain: SSSPSEILQELGKGGTPPQQQQQQQQQPGASPPAAPGPKDSPGETDAFGNSEGKEMVAAGDNKIKQGLLPSLEDLLFYTIAEGQEKIPVHKFITALKSTGLRTSDPRLKECMDMLRLTLQTTSDGVMLDKDLFKKCVQSNIVLLTQAFRRKFVIPDFMSFTSHIDELYESAKKQSGGKVADYIPQLAKFSPDLWGVSVCTVDGQRHSIGDTKVPFCLQSCVKPLKYAIAVNDLGTEYVHRYVGKEPSGLRFNKLFLNEDDKPHNPMVNAGAIVVTSLIKQGVNNAEKFDYVMQFLNKMAGNEYVGFSNATFQSERESGDRNFAIGYYLKEKKCFPEGTDMVGILDFYFQLCSIEVTCESASVMAATLANGGFCPITGERVLSPEAVRNTLSLMHSCGMYDFSGQFAFHVGLPAKSGVAGGILLVVPNVMGMMCWSPPLDKMGNSVKGIHFCHDLVSLCNFHNYDNLRHFAKKLDPRREGGDQRHSFGPLDYESLQQELALKDTVWKKVSPESSDDTSTTVVYRMESLGERS
modifications: labeled with Alexa Fluor 488 succinimidyl ester (sites not given)
notes: not shown: N-terminal His tag and thrombin cleavage site from pET28a
B4: QSY9-labeled recombinant mouse GAC (FRET acceptor) (enzyme)
chain: SSSPSEILQELGKGGTPPQQQQQQQQQPGASPPAAPGPKDSPGETDAFGNSEGKEMVAAGDNKIKQGLLPSLEDLLFYTIAEGQEKIPVHKFITALKSTGLRTSDPRLKECMDMLRLTLQTTSDGVMLDKDLFKKCVQSNIVLLTQAFRRKFVIPDFMSFTSHIDELYESAKKQSGGKVADYIPQLAKFSPDLWGVSVCTVDGQRHSIGDTKVPFCLQSCVKPLKYAIAVNDLGTEYVHRYVGKEPSGLRFNKLFLNEDDKPHNPMVNAGAIVVTSLIKQGVNNAEKFDYVMQFLNKMAGNEYVGFSNATFQSERESGDRNFAIGYYLKEKKCFPEGTDMVGILDFYFQLCSIEVTCESASVMAATLANGGFCPITGERVLSPEAVRNTLSLMHSCGMYDFSGQFAFHVGLPAKSGVAGGILLVVPNVMGMMCWSPPLDKMGNSVKGIHFCHDLVSLCNFHNYDNLRHFAKKLDPRREGGDQRHSFGPLDYESLQQELALKDTVWKKVSPESSDDTSTTVVYRMESLGERS
modifications: labeled with QSY9 succinimidyl ester (sites not given)
notes: also called QSY9-GAC; QSY9-labeled GAC; not shown: N-terminal His tag and thrombin cleavage site from pET28a

In series [1] the target is B4. Nature of the series: FRET, exchange with excess unlabeled GAC.
Series [2] deals with the molecule itself. The series is described as follows: SEC-MALS of 5 mg/ml protein, self-association (dimer/tetramer), without and after preincubation with BPTES; MW on a log axis [panel C]. An excerpt: (§1) LS=light scattering; MW=molecular weight. […] Points represent the mean and error bars the standard deviation of three independent experiments.
(In general: SEC sorts molecules by how far they enter the pores of the column.)

Series [3] has as its target B3. Nature of the series: FRET exchange (competition): excess unlabeled GAC added to preformed 488-labeled GAC / QSY9-GAC complexes; displaced competitor is QSY9-GAC; with or without 100 mM phosphate or sulfate [panel A].
Series [4] deals with the molecule itself. Nature of the series: SEC-MALS of 5 mg/ml protein, self-association (dimer/tetramer), without and after preincubation with BPTES; MW on a log axis [panel D].
Text: as §1

Series [5] addresses B4. Nature of the series: FRET, self-association of labeled GAC in solution.
Series [6] deals with B3. The series is described as follows: FRET time trace: 25 nM 488-labeled GAC (donor) + 75 nM QSY9-GAC (acceptor); 100 mM phosphate, sulfate or water added at 10 min [panel A].
Series [7] deals with the molecule itself. The series is described as follows: SEC-MALS of 5 mg/ml protein, self-association, without and after preincubation with BPTES; MW on a log axis [panel B]. An excerpt: LS=light scattering; MW=molecular weight.

B1: wild-type recombinant mouse glutaminase C (GAC), residues 73-603, unlabeled (enzyme)
chain: SSSPSEILQELGKGGTPPQQQQQQQQQPGASPPAAPGPKDSPGETDAFGNSEGKEMVAAGDNKIKQGLLPSLEDLLFYTIAEGQEKIPVHKFITALKSTGLRTSDPRLKECMDMLRLTLQTTSDGVMLDKDLFKKCVQSNIVLLTQAFRRKFVIPDFMSFTSHIDELYESAKKQSGGKVADYIPQLAKFSPDLWGVSVCTVDGQRHSIGDTKVPFCLQSCVKPLKYAIAVNDLGTEYVHRYVGKEPSGLRFNKLFLNEDDKPHNPMVNAGAIVVTSLIKQGVNNAEKFDYVMQFLNKMAGNEYVGFSNATFQSERESGDRNFAIGYYLKEKKCFPEGTDMVGILDFYFQLCSIEVTCESASVMAATLANGGFCPITGERVLSPEAVRNTLSLMHSCGMYDFSGQFAFHVGLPAKSGVAGGILLVVPNVMGMMCWSPPLDKMGNSVKGIHFCHDLVSLCNFHNYDNLRHFAKKLDPRREGGDQRHSFGPLDYESLQQELALKDTVWKKVSPESSDDTSTTVVYRMESLGERS
notes: one subunit is described; also called WT GAC; unlabeled GAC; not shown: N-terminal His tag and thrombin cleavage site from pET28a
As to B1, the “Specific activity of WT GAC without phosphate (mol Glu/min mol GAC), against [GAC]” value is “specific activity (triangles, left axis) rises with [GAC] from about 90 at about 85 nM through about 400 at about 430 nM to about 500 at about 1000-1500 nM, flattening; no lower plateau inside the range (linear axis)”. In series [1], the binding result is “binds”. Also, in series [2], the binding result was “binds”. In addition, the binding result in series [3] is given as “binds”.

B2: mouse GAC F327W mutant (residues 73-603) (enzyme)
chain: SSSPSEILQELGKGGTPPQQQQQQQQQPGASPPAAPGPKDSPGETDAFGNSEGKEMVAAGDNKIKQGLLPSLEDLLFYTIAEGQEKIPVHKFITALKSTGLRTSDPRLKECMDMLRLTLQTTSDGVMLDKDLFKKCVQSNIVLLTQAFRRKFVIPDFMSFTSHIDELYESAKKQSGGKVADYIPQLAKFSPDLWGVSVCTVDGQRHSIGDTKVPFCLQSCVKPLKYAIAVNDLGTEYVHRYVGKEPSGLRFNKLWLNEDDKPHNPMVNAGAIVVTSLIKQGVNNAEKFDYVMQFLNKMAGNEYVGFSNATFQSERESGDRNFAIGYYLKEKKCFPEGTDMVGILDFYFQLCSIEVTCESASVMAATLANGGFCPITGERVLSPEAVRNTLSLMHSCGMYDFSGQFAFHVGLPAKSGVAGGILLVVPNVMGMMCWSPPLDKMGNSVKGIHFCHDLVSLCNFHNYDNLRHFAKKLDPRREGGDQRHSFGPLDYESLQQELALKDTVWKKVSPESSDDTSTTVVYRMESLGERS
notes: as for B3
As for B2, the binding result in series [4] is recorded as “binds”.

For B3, the binding result in series [5] is “binds”.

As to B4, the binding result in series [6] was “binds”.

B5: mouse GAC F327W,D391K double mutant (residues 73-603) (enzyme)
chain: SSSPSEILQELGKGGTPPQQQQQQQQQPGASPPAAPGPKDSPGETDAFGNSEGKEMVAAGDNKIKQGLLPSLEDLLFYTIAEGQEKIPVHKFITALKSTGLRTSDPRLKECMDMLRLTLQTTSDGVMLDKDLFKKCVQSNIVLLTQAFRRKFVIPDFMSFTSHIDELYESAKKQSGGKVADYIPQLAKFSPDLWGVSVCTVDGQRHSIGDTKVPFCLQSCVKPLKYAIAVNDLGTEYVHRYVGKEPSGLRFNKLWLNEDDKPHNPMVNAGAIVVTSLIKQGVNNAEKFDYVMQFLNKMAGNEYVGFSNATFQSERESGKRNFAIGYYLKEKKCFPEGTDMVGILDFYFQLCSIEVTCESASVMAATLANGGFCPITGERVLSPEAVRNTLSLMHSCGMYDFSGQFAFHVGLPAKSGVAGGILLVVPNVMGMMCWSPPLDKMGNSVKGIHFCHDLVSLCNFHNYDNLRHFAKKLDPRREGGDQRHSFGPLDYESLQQELALKDTVWKKVSPESSDDTSTTVVYRMESLGERS
notes: Found as a dimer by SEC-MALS; also called GAC double mutant; dimeric GACF327W,D391K double mutant; not shown: N-terminal His tag and thrombin cleavage site from pET28a
B5: in series [7], the binding result is given as “binds”.
